For experiment [1], the target named is SARS-CoV-2 full-length Spike Recombinant Antigen B.1.1.7 Mutation (Bio-Serv) (SARS-CoV-2, UniProt P0DTC2 14-1273). As to the kind of experiment: ELISA, VHH on nickel plate, spike in solution (0-500 ng/mL). For orientation: An ELISA detects its analyte on a solid surface through an enzyme-linked reagent.
Experiment [2] addresses SARS-CoV-2 full-length Spike Recombinant Antigen P.1 Mutation (Bio-Serv) (SARS-CoV-2, UniProt P0DTC2 14-1273). The description is as above.
Experiment [3] concerns the target SARS-CoV-2 full-length Spike Recombinant Antigen B.1.351 Mutation (Bio-Serv) (SARS-CoV-2, UniProt P0DTC2 14-1273). The description is as above.
Experiment [4] has as its target SARS-CoV-2 (2019-nCoV) spike S1-Fc recombinant protein (Sino Biological, Inc.) (SARS-CoV-2, UniProt P0DTC2 16-685).
Experiment [5] concerns the target T1, SARS-CoV2 spike RBD variant strain (SPD-C52Hp, Acro Biosystems, K417N, E484K, N501Y) (SARS-CoV-2, UniProt P0DTC2 319-537).
T1 construct: domain: RBD
The experiment can be described thus: BLI (Octet), biotinylated RBD on SA sensor, VHH as analyte, 1:1 fit.

The target of experiment [6] is T2, SARS-CoV2 spike RBD variant (SRD-C52H2, Acro Biosystems, N440K) (SARS-CoV-2, UniProt P0DTC2 319-537).
T2 construct: domain: RBD
The description is as above.

Experiment [7] addresses T3, SARS-CoV2 spike RBD variant strain (SRD-C52H3, Acro Biosystems, E484K) (SARS-CoV-2, UniProt P0DTC2 319-537).
T3 construct: domain: RBD
The description is as above.

Experiment [8] deals with T4, SARS-CoV-2 full-length Spike Recombinant Antigen B.1.617 Mutation (Bio-Serv) (SARS-CoV-2, UniProt P0DTC2 14-1273).
T4 construct: Bought
The experiment can be described thus: ELISA, VHH on nickel plate, spike in solution.

The target in experiment [9] is T5, SARS-CoV-2 spike RBD variant strain (SPD-C52Hn, Acro Biosystems, N501Y) (SARS-CoV-2, UniProt P0DTC2 319-537).
T5 construct: domain: RBD
As to the kind of experiment: BLI (Octet), biotinylated RBD on SA sensor, VHH as analyte, 1:1 fit. In general terms: BLI is a label-free optical method that tracks binding on a fibre tip over time.

In experiment [10] the target is T6, SARS-CoV-2 (2019-nCoV) spike RBD (L452Q, F490S) protein (His Tag) (Sino Biological, Inc.) (SARS-CoV-2, UniProt P0DTC2 319-541).
T6 construct: domain: RBD
The experiment can be described thus: pull-down with VHH-immobilized beads, SDS-PAGE of the eluate.

One may read the Kd as a measure of binding affinity in units of concentration. The term koff denotes the rate constant with which the complex falls apart. As usually defined, the kon is the second-order rate constant of association.

B1: Bacillus subtilis-derived VHH-COVE3 (VHH)
VHH: AEVQLVESGGGFVQAGGSLRLSCRVSAPTFMTYTMAWFRQAPGNEREFVAALSKNFVTTSYADSVKGRFTISRDNAKNTVYLQMNSLKPEDTAVYYCNVAWSDYEYLEVWGQGTLVTVSSGGGSHHHHHH
Turning to B1, the “absorbance (450 nm)” value in experiment [1], in experiment [2] and in experiment [3] was 0.97 in each case. For the same molecule, the Kd in experiment [4] worked out at 0.924 nM; in experiment [5] it was 265 nM; in experiment [6] it was 15.4 nM. Besides, the results for the koff in experiment [4], in [5] and in experiment [6] were 9.75e-05 s⁻¹, 0.0106 s⁻¹ and 0.000448 s⁻¹, respectively. In addition, the kon is 106000 M⁻¹ s⁻¹ in experiment [4], 40000 M⁻¹ s⁻¹ in [5] and 29200 M⁻¹ s⁻¹ in experiment [6].

B2: Bacillus subtilis-derived VHH-COVE8 (VHH)
VHH: EVQLVESGGGLVQPGGSLTLSCAASGQTFSSYNMAWFRQSPGKEREFVATISWGGGSTGYADSVKGRFTISRDHAKNTVYLQMKDLKPEDTGAYYCYLVGLFGIQASDYWGQGTQVTVSS
Regarding B2, the Kd in experiment [7] is 211 nM; in experiment [5] it was 239 nM; in experiment [6], less than 0.001 nM; in experiment [9] it was 28.8 nM. Also, the koff is 0.0147 s⁻¹ in experiment [7], 0.0191 s⁻¹ in experiment [5], less than 1e-07 s⁻¹ in [6] and 0.00159 s⁻¹ in [9]. In addition, the kon was found to be 69700 M⁻¹ s⁻¹ in experiment [7], 79900 M⁻¹ s⁻¹ in experiment [5], 74500 M⁻¹ s⁻¹ in experiment [6] and 55300 M⁻¹ s⁻¹ in experiment [9]. Further, the binding result in experiment [8] is “no binding (tested: 500 ng/mL)”. Besides, the “absorbance (450 nm)” value in experiment [1], in [2] and in [3] was 0.97 throughout.

B3: Bacillus subtilis-derived VHH-COVE7 (VHH)
VHH: EVQLVESGGGLVQAGDSLRLSCTASGRTFSSCAMGWFRQAPGKEREFVAAISRGGGSTSYADSVKGRFTISKDRARNTAYLEMNSLKPEDTAIYYCYAVFPSGGDYWGQGTQVTVSS
Take B3: the Kd in [7] was determined as 80.2 nM; in experiment [5], 93.7 nM; in experiment [6] it was 24.2 nM; in experiment [9] it was 24 nM. Also, the koff in [7] was 0.00707 s⁻¹; in experiment [5], 0.00398 s⁻¹; in experiment [6], 0.00113 s⁻¹; in [9] it was 0.00186 s⁻¹. Further, the kon in experiment [7] was determined as 88100 M⁻¹ s⁻¹; in experiment [5] it was 42400 M⁻¹ s⁻¹; in experiment [6], 46600 M⁻¹ s⁻¹; in experiment [9] it was 73300 M⁻¹ s⁻¹. Further, the binding result in experiment [8] is recorded as “no binding (tested: 500 ng/mL)”. Besides, the “absorbance (450 nm)” value in experiment [1], in experiment [2] and in experiment [3] was 0.97 in each case.

B4: Bacillus subtilis-derived VHH-COVE6 (VHH)
VHH: EVQLVESGGGLVQAGGSLRLSCTASGRTWNIASMTWFRQAPGGKERTFVATIKWSDLATYYTDSVKGRFTISRGNSKNTVYLQMNSLKPEDTGVYFCYAITTGSPLLGGGMDFWGKGTLVTVSS
With B4, the binding result in [8] was “no binding (tested: 500 ng/mL)”; in [1], “binds”.

B5: Bacillus subtilis-derived VHH-COVE2 (VHH)
VHH: AEVQLVESGGGLVQAGDSLRLSCAATRRTSSTYAMGWFRQAPGKGLEWVAAISWDGGRTYYAESVKGRFTISRDNAKNTVYLQMNSLKPEDTAVYYCYSFGGSDFLMDYWGQGTQVTVSSGGGSHHHHHH
Regarding B5, the Kd amounted to 34.4 nM in experiment [7]; 1.2 nM in experiment [4]; 90.7 nM in experiment [5]; 2.96 nM in [6]; 4.01 nM in [9]. For the same molecule, the koff came out at 0.00365 s⁻¹ in experiment [7]; 8.47e-05 s⁻¹ in [4]; 0.00529 s⁻¹ in experiment [5]; 0.000491 s⁻¹ in experiment [6]; 0.000438 s⁻¹ in experiment [9]. Besides, the kon turned out to be 106000 M⁻¹ s⁻¹ in [7]; 70700 M⁻¹ s⁻¹ in experiment [4]; 58400 M⁻¹ s⁻¹ in experiment [5]; 166000 M⁻¹ s⁻¹ in experiment [6]; 109000 M⁻¹ s⁻¹ in experiment [9]. Moreover, in [8], the binding result is recorded as “no binding (tested: 500 ng/mL)”. In addition, the “absorbance (450 nm)” value in experiment [1], in experiment [2] and in [3] was 0.97 each time.

B6: Bacillus subtilis-derived VHH-COVE5 (VHH)
VHH: EVQLVESGGGLVQAGGSLRLSCTASDQIFDNYNMAWFRQSPGKEREFVAALSWGDSNTGYADSVKGRFTISRDNAKNTVYLQMNSLKPEDTAVYYCYAVTWLRGDYWGQGTQVTVSS
Turning to B6, the Kd is 626 nM in [7], 306 nM in experiment [5], 42.4 nM in experiment [6] and 11.6 nM in experiment [9]. For the same molecule, the koff was 0.0246 s⁻¹ in experiment [7], 0.0625 s⁻¹ in experiment [5], 0.00178 s⁻¹ in [6] and 0.00106 s⁻¹ in [9]. For the same molecule, the kon was determined as 39200 M⁻¹ s⁻¹ in experiment [7], 204000 M⁻¹ s⁻¹ in [5], 42100 M⁻¹ s⁻¹ in experiment [6] and 91100 M⁻¹ s⁻¹ in [9]. The binding result in [8] is listed as “no binding (tested: 500 ng/mL)”. For the same molecule, the “absorbance (450 nm)” value in experiment [1], in [2] and in experiment [3] was 0.97 in each case.

B7: Bacillus subtilis-derived VHH-COVE4 (VHH)
VHH: AEVQLVESGGDVVQPGGSLRLSCAASGFTFTTYAMTWVRQAPGEGLEAVSTISGADGSTYYADSVKGRFTISRDNANNTVYLQMNSLKPEDTAVYYCAATPWYSASHTYWGQGTQVTVSSGGGSHHHHHH
For B7, the binding result is given as “no binding (tested: 500 ng/mL)” in experiment [8] and “binds” in [1].

B8: Bacillus subtilis-derived VHH-COVE1 (VHH)
VHH: AEVQLVESGGGLVQPGGSLRLSCAASGFAFSSYPMYWVRQAPGKGLEWISFIDGEGTSTSYADSVKGRFTISRDNAKNTVYLQMNSLKPEDTAVYYCNALLRRYNYGFTFDNYWGQGTQVTVSSGGGSHHHHHH
In the case of B8, the binding result is listed as “no binding (tested: 500 ng/mL)” in experiment [8] and “binds” in [1].

B9: Bacillus subtilis-derived VHH-COVE9 (VHH)
VHH: EVQLVESGGGLVQPGGSLRLSCAASGTIFSTNAMSWYRQAPGKQRELVAAITSGGNTNYADSVKGRFTISRDNAKNTVYLQMNSLKPEDTAVYYCNAPGVVTGSYDVRNYWGQGTQVTVSS
On to B9, for which the Kd in experiment [7] worked out at 9.9 nM; in experiment [5], 10.9 nM; in experiment [6], 12.5 nM; in [9] it was 6.9 nM. The off-rate (koff) in experiment [7] turned out to be 0.00307 s⁻¹; in [5], 0.00159 s⁻¹; in experiment [6], 0.00258 s⁻¹; in experiment [9] it was 0.00267 s⁻¹. Moreover, the kon in experiment [7] came to 310000 M⁻¹ s⁻¹; in experiment [5], 146000 M⁻¹ s⁻¹; in experiment [6] it was 206000 M⁻¹ s⁻¹; in experiment [9], 386000 M⁻¹ s⁻¹. In experiment [8], the binding result is reported as “no binding (tested: 500 ng/mL)”. Besides, the “absorbance (450 nm)” value in experiment [1], in [2] and in experiment [3] was 0.97 in each case.

B10: VHH-COVE9 (on beads in Example 26, production host not stated) (VHH)
VHH: EVQLVESGGGLVQPGGSLRLSCAASGTIFSTNAMSWYRQAPGKQRELVAAITSGGNTNYADSVKGRFTISRDNAKNTVYLQMNSLKPEDTAVYYCNAPGVVTGSYDVRNYWGQGTQVTVSS
Take B10: the binding result in experiment [10] is “no binding (tested: 12.5 µg/mL)”.

The values are drawn from patent US20230365659A1 (EPSILON MOLECULAR ENGINEERING, published 2023).
